Measured values: the supplement of paper PMC9170038

System: MS2 coat protein
Assay: apparent KD of MS2 coat protein; higher = weaker reporter binding
Details: Eterna round: R107
Description: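 RNA-MaP round R107: designed RNA switches with theophylline, tryptophan, arginine or FMN aptamers are transcribed on-chip within common flanks. They are titrated with SNAP-549-labelled MS2 coat protein in RNA-MaP buffer (100 mM Tris pH 7.5, 80 mM KCl, 4 mM MgCl2), without ligand or with the indicated ligand. Median apparent KD per design.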

[1] = input ligand: theophylline 20 uM
[2] = input ligand: tryptophan 2.4 mM
[3] = input ligand: theophylline 2 mM

## AUCACUGUGAAAGAUACCAGCGCCCUACCUAUCUUCUGUUACAUGAGGAUCACCCAUGUUCGCCCUUGGCAGCUUGAGAUGGAUC [theeternabot_exclusion_MS2_Theo_B_11]
Input ligand: arginine 13.2 mM
  apparent KD of MS2 coat protein: 44.2 nM
[1]
  apparent KD of MS2 coat protein: 75.1 nM
[2]
  apparent KD of MS2 coat protein: 44.9 nM

## AGCCCGUGAGCGGCCGCCACUGGAGGCUUUGCGCGACAUGAGGAUCACCCAUGUGUGCCCGGCGUUAGGACCGGGUUCACGUGGU [#1 Same State - Tryptophan B Attempt #19 (HarryS)]
Input ligand: arginine 13.2 mM
  apparent KD of MS2 coat protein: 59.4 nM
Input ligand: none
  apparent KD of MS2 coat protein: 304 nM
[1]
  apparent KD of MS2 coat protein: 226 nM
[3]
  apparent KD of MS2 coat protein: 838 nM
[2]
  apparent KD of MS2 coat protein: 124 nM

## GGACUAACCAGAAGGAGCGACGCAAGCAGAAACUGCAAUCCUCCGCACGAGGAUCACCCGUGUCAGGUAGGUCGCUGGUUAGUCG [ArgBX 28]
Input ligand: arginine 13.2 mM
  apparent KD of MS2 coat protein: 21.6 nM
Input ligand: none
  apparent KD of MS2 coat protein: 28.2 nM
[1]
  apparent KD of MS2 coat protein: 38.4 nM
[3]
  apparent KD of MS2 coat protein: 30.1 nM
[2]
  apparent KD of MS2 coat protein: 29.2 nM

## CGGUUUGUGAUGGAUACCAGCAGUGUGGCUGUUUAUCCUGACAUGAGGAUCACCCAUGUGUGCCCUUGGCAGCUGUUGUGGGCUG [8.aC]
Input ligand: arginine 13.2 mM
  apparent KD of MS2 coat protein: 64.1 nM
[1]
  apparent KD of MS2 coat protein: 105 nM
[2]
  apparent KD of MS2 coat protein: 77 nM

## UCAUAAGUACCGGUCCUCAGAUCCUCAUGACGAGGACCGGUACGGCCGCCACUCGAAACAUGAGGAUCACCCAUGUAAUAAUAUU [Brourdmod11]
Input ligand: arginine 13.2 mM
  apparent KD of MS2 coat protein: 19.5 nM
[1]
  apparent KD of MS2 coat protein: 28.5 nM
[3]
  apparent KD of MS2 coat protein: 27.3 nM

## UGUAUGUGAUUUGAUACCAGACCAGCUGGUGGUCCAUGAGGAACACCCAUGGAGGUUUGGGUCCCUUGGCAGCAAAUCGCAUACU [SS Theo B #24 Ms20]
Input ligand: arginine 13.2 mM
  apparent KD of MS2 coat protein: 152 nM
[1]
  apparent KD of MS2 coat protein: 130 nM
[3]
  apparent KD of MS2 coat protein: 74.5 nM
[2]
  apparent KD of MS2 coat protein: 89.7 nM

## UCGGGCAGAGCGGCCGCCACUGUAAGGCGUGCGGAUGACGGAACAUGAGGAUCACCCAUGUUGUUUAGGACCGGGCUUGCGGCGA [nynullin]
Input ligand: arginine 13.2 mM
  apparent KD of MS2 coat protein: 22.5 nM
Input ligand: none
  apparent KD of MS2 coat protein: 15.8 nM
[1]
  apparent KD of MS2 coat protein: 27.2 nM
[3]
  apparent KD of MS2 coat protein: 11.2 nM
[2]
  apparent KD of MS2 coat protein: 16.7 nM

## AACAACUAGUCGGCCGCCACUCAUAAUACAUGAGGAUCACCCAUGUAUACUUGGUUUUUAUAUUUGAGGACCGGGACAGUUGCAU [JR_Nu_ExcTryptoB_Sub026]
Input ligand: arginine 13.2 mM
  apparent KD of MS2 coat protein: 12.5 nM
[1]
  apparent KD of MS2 coat protein: 14.7 nM
[3]
  apparent KD of MS2 coat protein: 10.7 nM

## UGUCAGCGAAAGUUGACAUGUCUUACCGGUCGAGGACCGGUACGGCCGCCACUCGAUCACUCGCACAUGAGGAUCACCCAUGUUG [SS Tryp A #21]
Input ligand: arginine 13.2 mM
  apparent KD of MS2 coat protein: 21.1 nM
[1]
  apparent KD of MS2 coat protein: 24.6 nM
[3]
  apparent KD of MS2 coat protein: 23.8 nM

## ACAUGAGGAUCACCCAUGUAAUAAUCAGAAGGAGCGUGGAAUAACACAGGUAGGUCGCUGAUGUUUUGUUAAAAUUAUUCGUGAA [JR_SSArginiA_Sub002]
Input ligand: arginine 13.2 mM
  apparent KD of MS2 coat protein: 11.7 nM
Input ligand: none
  apparent KD of MS2 coat protein: 13.5 nM
[1]
  apparent KD of MS2 coat protein: 16.9 nM
[3]
  apparent KD of MS2 coat protein: 12.9 nM
[2]
  apparent KD of MS2 coat protein: 14.3 nM

## AUAAUAAGGUGAUCCUAAGUCGUACCGUAACGAGGACCGGUACGGCCGCCACUCGAACAUGAGGAUCACCCAUGUAUGUACGACA [M'-T'-T-MS2-T'' - Design 6]
Input ligand: arginine 13.2 mM
  apparent KD of MS2 coat protein: 28.1 nM
Input ligand: none
  apparent KD of MS2 coat protein: 56.1 nM
[1]
  apparent KD of MS2 coat protein: 96.1 nM
[3]
  apparent KD of MS2 coat protein: 170 nM
[2]
  apparent KD of MS2 coat protein: 75.9 nM

## CAGUGAGAACGAAGGAGCGCUGAAUGAUGUGGACAUGAGGAUCACCCAUGUUAAGUCCAAUGGCAGGUAGGUCGCGUAACACUAG [Same State - Arginine B]
Input ligand: arginine 13.2 mM
  apparent KD of MS2 coat protein: 14.1 nM
Input ligand: none
  apparent KD of MS2 coat protein: 15.8 nM
[1]
  apparent KD of MS2 coat protein: 11.9 nM
[3]
  apparent KD of MS2 coat protein: 12.7 nM
[2]
  apparent KD of MS2 coat protein: 15.8 nM

## AAAUAAAUACAUGAGGAUCACCCAUGUGAAGGAGCGCCCGUUAGGGCAGGUAGGUCGCACAUGAACUCCAAGCGAAAGAAAUAAU [ArgEX 16 #OpenEnded]
Input ligand: arginine 13.2 mM
  apparent KD of MS2 coat protein: 23.6 nM
Input ligand: none
  apparent KD of MS2 coat protein: 18.3 nM
[1]
  apparent KD of MS2 coat protein: 23.9 nM
[3]
  apparent KD of MS2 coat protein: 22.7 nM
[2]
  apparent KD of MS2 coat protein: 16.4 nM

## AUGGUCGACGAUCUGCGAAAAGCAGAUCGACGAGGACCGGUACGGCCGCCACUCGUGUUCAUUAAACAUGAGGAUCACCCAUGUA [#15Tryptophan A Same State]
Input ligand: arginine 13.2 mM
  apparent KD of MS2 coat protein: 41 nM
[1]
  apparent KD of MS2 coat protein: 68.7 nM
[3]
  apparent KD of MS2 coat protein: 70.2 nM

## GAGUUCCUGAGAGAUACCAGUGAAGCCACAUGAGGAUCACCCAUGUCCCUCACUCCGGCCCACCCUUGGCAGCUCGAAAGAUGGA [Exclusion Theophylline B GF 21]
Input ligand: arginine 13.2 mM
  apparent KD of MS2 coat protein: 83.7 nM
Input ligand: none
  apparent KD of MS2 coat protein: 105 nM
[1]
  apparent KD of MS2 coat protein: 132 nM
[3]
  apparent KD of MS2 coat protein: 403 nM
[2]
  apparent KD of MS2 coat protein: 141 nM

## CAGUGAGAGUCGGCCGCCACUUAACGCAAGUAGCGCAACCCAAAACAUGAGGAUCACCCAUGUCGAAGGACCGGGACAAUGAGCG [theeternabot_sameState_MS2_Trp_B_47]
Input ligand: arginine 13.2 mM
  apparent KD of MS2 coat protein: 11.5 nM
[1]
  apparent KD of MS2 coat protein: 16.7 nM
[3]
  apparent KD of MS2 coat protein: 11.7 nM

## AGAAUAACACAUGAGGAUCACCCAUGUGAUACCAGCUAGGAAACUAGCCCUUGGCAGCACAUAAUCCUCAUGAAUGUGCUGAAUA [(M1)-(M2)-(T1)-(T2)-(M)'-(T)'_Design3_2/19/17]
Input ligand: arginine 13.2 mM
  apparent KD of MS2 coat protein: 37.3 nM
[1]
  apparent KD of MS2 coat protein: 121 nM
[2]
  apparent KD of MS2 coat protein: 59.7 nM

## ACACAUGAGGAUCACCCAUGUUGCAUAGAUACCAGAUAACGUGAGAUCCCUUGGCAGCUAACUGCAUGAACUUGACAUGCAUCAU [Same State Theophylline A 2]
Input ligand: arginine 13.2 mM
  apparent KD of MS2 coat protein: 44.2 nM
[1]
  apparent KD of MS2 coat protein: 88.7 nM
[2]
  apparent KD of MS2 coat protein: 53.5 nM

## UGGUGUAGGGUAAAUAGGCUGAGUACAGAAGGAGCGCGAAUAAACGCAGGUAGGUCGCUGGACACAUGAGGAUCACCCAUGUUGA [Same State Arginine A GF 29]
Input ligand: arginine 13.2 mM
  apparent KD of MS2 coat protein: 10.8 nM
Input ligand: none
  apparent KD of MS2 coat protein: 20.5 nM
[1]
  apparent KD of MS2 coat protein: 31.9 nM
[3]
  apparent KD of MS2 coat protein: 27.3 nM
[2]
  apparent KD of MS2 coat protein: 21.2 nM

## AGUACUCGAACGGAUACCAGCCGGACAUGAGGAUCACCCAUGUCCUACCUAUGUUCGGUUGGCCCUUGGCAGCCGUUCGUGUACA [Omei Theo B SS A v6]
Input ligand: arginine 13.2 mM
  apparent KD of MS2 coat protein: 171 nM
[1]
  apparent KD of MS2 coat protein: 707 nM
[2]
  apparent KD of MS2 coat protein: 430 nM

## CUGGACAUGAGGAUCACCCAUGUAAAUCCUCGAGGACCGGUACGGCCGCCACUCGAACGAGUGGCGCGCGAGCGCGCGCUCGCGC [aJa]
Input ligand: arginine 13.2 mM
  apparent KD of MS2 coat protein: 41.4 nM
Input ligand: none
  apparent KD of MS2 coat protein: 43.3 nM
[1]
  apparent KD of MS2 coat protein: 80.3 nM
[3]
  apparent KD of MS2 coat protein: 62.5 nM
[2]
  apparent KD of MS2 coat protein: 45.5 nM

## CUUGUUUGUGGAAGGAGCGCGAUUACAUAACAUGAGGAUCACCCAUGUAAGAAAUUAUUCAUGCAGGUAGGUCGCCAUUGGUGGG [Same State Arginine B GF8]
Input ligand: arginine 13.2 mM
  apparent KD of MS2 coat protein: 64.1 nM
Input ligand: none
  apparent KD of MS2 coat protein: 62.2 nM
[1]
  apparent KD of MS2 coat protein: 53.1 nM
[3]
  apparent KD of MS2 coat protein: 23.7 nM
[2]
  apparent KD of MS2 coat protein: 30.6 nM

## UGUCACUGUUUGGUUCAAUGAAGAAGAAUUCGAGGACCGGUACGGCCGCCACUCGCUAUGCAACAUGAGGAUCACCCAUGUAAAA [theeternabot_exclusion_MS2_Trp_A_31]
Input ligand: arginine 13.2 mM
  apparent KD of MS2 coat protein: 13.4 nM
[1]
  apparent KD of MS2 coat protein: 17 nM
[3]
  apparent KD of MS2 coat protein: 17.3 nM

## UACAUAUGCCGAAGGAGCGUGAGAUGCAAAGCAUCAUUCCUCACAUGAGGAUCACCCAUGUCACAGGUAGGUCGCGGCAUAUGUU [ArgBX 3]
Input ligand: arginine 13.2 mM
  apparent KD of MS2 coat protein: 94.3 nM
Input ligand: none
  apparent KD of MS2 coat protein: 90 nM
[1]
  apparent KD of MS2 coat protein: 115 nM
[3]
  apparent KD of MS2 coat protein: 117 nM
[2]
  apparent KD of MS2 coat protein: 96.9 nM

## ACGUAAUGCAGAAGGAGCGUCGAUCUCAUACAUGAGGAUCACCCAUGUUACAUGGUUGGACGACAGGUAGGUCGCUGAAGUACGA [#06 Exclusion - Arginine B]
Input ligand: arginine 13.2 mM
  apparent KD of MS2 coat protein: 24.2 nM
Input ligand: none
  apparent KD of MS2 coat protein: 20.6 nM
[1]
  apparent KD of MS2 coat protein: 35.5 nM
[3]
  apparent KD of MS2 coat protein: 27.4 nM
[2]
  apparent KD of MS2 coat protein: 21.4 nM

## ACGUCACGUUUACUCGUGGUUUCGAUCGAUACCAGUAGCGAGAGUUACCCUUGGCAGCGACAUGAGGAUCACCCAUGUGCGAAGA [XTheo A #26]
Input ligand: arginine 13.2 mM
  apparent KD of MS2 coat protein: 12.2 nM
[1]
  apparent KD of MS2 coat protein: 14 nM
[2]
  apparent KD of MS2 coat protein: 11.7 nM

## GGGCACAUGAGGAUCACCCAUGUCCAACGGCGAGGACCGGUACGGCCGCCACUCGGUAUAAGCUUCGAAAAGGAGGAUCCUGCAG [theeternabot_sameState_MS2_Trp_A_35]
Input ligand: arginine 13.2 mM
  apparent KD of MS2 coat protein: 20.4 nM
[1]
  apparent KD of MS2 coat protein: 56.3 nM
[3]
  apparent KD of MS2 coat protein: 47.7 nM

## UUAAAGGCACCUCAUGGGACUAUAAACCCGCGAGGACCGGUACGGCCGCCACUCGAAUAUCAACAUGAGGAUCACCCAUGUGGUU [theeternabot_exclusion_MS2_Trp_A_6]
Input ligand: arginine 13.2 mM
  apparent KD of MS2 coat protein: 16.2 nM
[1]
  apparent KD of MS2 coat protein: 32.3 nM
[3]
  apparent KD of MS2 coat protein: 29.6 nM

## GGCCUAUGGCGCGAUACCAGCUUGAGUGUACUGGCCAGGUACAUGAGGAUCACCCAUGUAAGCCCUUGGCAGCGCGUCAUAGGCC [#1 Exclusion - Theophylline B Attempt #23 (HarryS)]
Input ligand: arginine 13.2 mM
  apparent KD of MS2 coat protein: 8.91 nM
Input ligand: none
  apparent KD of MS2 coat protein: 9.95 nM
[1]
  apparent KD of MS2 coat protein: 17.9 nM
[3]
  apparent KD of MS2 coat protein: 32.2 nM
[2]
  apparent KD of MS2 coat protein: 9.74 nM
